Some targets named below: LIMK2, P53671; LNX1_2, Q8TBB1; SCRIB_2, Q14160; PDZRN4_1, Q6ZMN7; DLG4_1, P78352; IL16_1, Q14005; PARD3_3, Q8TEW0; MAST1, Q9Y2H9; GIPC2, Q8TF65; HTRA2, O43464; TJP1_2, Q07157.
Holding throughout (assay): holdup assay
Common to all, as to design: key: below the threshold = too weak to quantify, mostly under pKd 3.1 to 4

A further experiment deals with T1, SHANK1, Q9Y566.
T1 sequence (Q9Y566 658-767, limits assumed, looked up): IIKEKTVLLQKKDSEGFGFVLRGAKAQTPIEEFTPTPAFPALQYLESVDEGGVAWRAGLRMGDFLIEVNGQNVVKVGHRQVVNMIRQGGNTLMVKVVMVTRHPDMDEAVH

For the next experiment, the target named is T2, RAPGEF6, Q8TEU7.
T2 sequence (Q8TEU7 525-625, limits assumed, looked up): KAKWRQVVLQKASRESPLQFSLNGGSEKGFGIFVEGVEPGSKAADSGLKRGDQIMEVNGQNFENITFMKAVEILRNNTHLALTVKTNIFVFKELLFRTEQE

The target of a further experiment is T3, CARD11, Q9BXL7.
T3 sequence (Q9BXL7 662-765, limits assumed, looked up): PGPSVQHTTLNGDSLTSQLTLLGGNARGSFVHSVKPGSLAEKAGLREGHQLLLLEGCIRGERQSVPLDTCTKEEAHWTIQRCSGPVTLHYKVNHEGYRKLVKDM

The target in the next experiment is T4, NHERF3_1, Q5T2W1.
T4 sequence (Q5T2W1 4-100, limits assumed, looked up): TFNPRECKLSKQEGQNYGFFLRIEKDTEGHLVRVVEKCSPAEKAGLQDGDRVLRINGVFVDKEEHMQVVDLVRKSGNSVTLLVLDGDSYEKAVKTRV

For another experiment, the target named is T5, DFNB31_2, Q9P202.
T5 sequence (Q9P202 274-371, limits assumed, looked up): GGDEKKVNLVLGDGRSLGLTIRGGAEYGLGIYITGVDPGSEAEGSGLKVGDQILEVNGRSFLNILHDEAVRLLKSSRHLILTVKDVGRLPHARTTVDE

The target in another experiment is T6, DLG3_1, Q92796.
T6 sequence (Q92796 125-227, limits assumed, looked up): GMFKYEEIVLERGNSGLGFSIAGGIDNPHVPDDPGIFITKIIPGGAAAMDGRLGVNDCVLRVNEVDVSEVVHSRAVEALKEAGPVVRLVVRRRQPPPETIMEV

The target of a further experiment is T7, DLG3_3, Q92796.
T7 sequence (Q92796 374-475, limits assumed, looked up): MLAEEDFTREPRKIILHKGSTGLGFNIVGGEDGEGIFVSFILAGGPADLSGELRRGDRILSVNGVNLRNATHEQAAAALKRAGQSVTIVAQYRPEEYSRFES

A further experiment addresses T8, SNTA1, Q13424.
T8 sequence (Q13424 82-180, limits assumed, looked up): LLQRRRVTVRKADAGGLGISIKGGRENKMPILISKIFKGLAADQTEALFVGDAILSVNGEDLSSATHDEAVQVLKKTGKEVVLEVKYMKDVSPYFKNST

The target of another experiment is T9, DLG3_2, Q92796.
T9 sequence (Q92796 221-321, limits assumed, looked up): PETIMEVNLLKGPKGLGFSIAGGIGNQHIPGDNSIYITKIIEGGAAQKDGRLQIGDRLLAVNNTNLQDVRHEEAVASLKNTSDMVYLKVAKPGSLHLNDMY

A further experiment concerns the target T10, NHERF3_3, Q5T2W1.
T10 sequence (Q5T2W1 238-333, limits assumed, looked up): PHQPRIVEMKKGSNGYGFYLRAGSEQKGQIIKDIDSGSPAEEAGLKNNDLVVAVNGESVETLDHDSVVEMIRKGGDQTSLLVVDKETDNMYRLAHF

In a further experiment the target is T11, SIPA1L2, Q9P2F8.
T11 sequence (Q9P2F8 945-1036, limits assumed, looked up): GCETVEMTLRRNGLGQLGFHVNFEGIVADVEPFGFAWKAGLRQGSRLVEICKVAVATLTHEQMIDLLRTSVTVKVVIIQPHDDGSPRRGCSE

The target of a further experiment is T12, TIAM2, Q8IVF5.
T12 sequence (Q8IVF5 885-986, limits assumed, looked up): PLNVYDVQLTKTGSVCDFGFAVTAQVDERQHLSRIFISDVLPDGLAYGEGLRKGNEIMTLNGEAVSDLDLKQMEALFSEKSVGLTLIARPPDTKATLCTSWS

For another experiment, the target named is T13, SNTB1, Q13884.
T13 sequence (Q13884 107-205, limits assumed, looked up): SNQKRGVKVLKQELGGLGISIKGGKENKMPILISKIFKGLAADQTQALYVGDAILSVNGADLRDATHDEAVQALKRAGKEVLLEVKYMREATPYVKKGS

Where [1] appears, read: plain residues with an end cap or a label only (N-terminal biotin on a linker: ahx).
Setting [2] is: plain residues with an end cap or a label only (N-terminal biotin on a linker: ado-ado).
The mark [3] stands for this setting: plain residues with an end cap or a label only (N-terminal biotin on a linker: ttds).

HTRA2, O43464, sequence (O43464 355-458): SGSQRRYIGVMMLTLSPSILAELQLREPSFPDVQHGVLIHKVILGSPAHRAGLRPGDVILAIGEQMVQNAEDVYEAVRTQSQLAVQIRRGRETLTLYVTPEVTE
GIPC2, Q8TF65, sequence (Q8TF65 112-203): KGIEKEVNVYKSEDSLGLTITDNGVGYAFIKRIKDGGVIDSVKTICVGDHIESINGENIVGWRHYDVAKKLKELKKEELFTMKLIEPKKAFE
PDZRN4_1, Q6ZMN7, sequence (Q6ZMN7 213-318): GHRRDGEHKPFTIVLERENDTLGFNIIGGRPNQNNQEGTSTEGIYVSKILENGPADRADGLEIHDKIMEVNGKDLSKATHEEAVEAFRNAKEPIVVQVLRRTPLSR
IL16_1, Q14005, sequence (Q14005 210-306): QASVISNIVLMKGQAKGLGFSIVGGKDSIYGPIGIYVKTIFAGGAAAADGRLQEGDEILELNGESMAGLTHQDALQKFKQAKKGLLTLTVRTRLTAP
LIMK2, P53671, sequence (P53671 143-248): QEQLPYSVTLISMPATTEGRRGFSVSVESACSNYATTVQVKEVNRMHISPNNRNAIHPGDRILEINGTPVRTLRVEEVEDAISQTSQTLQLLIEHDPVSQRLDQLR
PARD3_3, Q8TEW0, sequence (Q8TEW0 582-685): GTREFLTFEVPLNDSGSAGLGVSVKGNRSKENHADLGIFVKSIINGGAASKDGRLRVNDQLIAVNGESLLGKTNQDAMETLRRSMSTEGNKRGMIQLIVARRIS
MAST1, Q9Y2H9, sequence (Q9Y2H9 962-1065): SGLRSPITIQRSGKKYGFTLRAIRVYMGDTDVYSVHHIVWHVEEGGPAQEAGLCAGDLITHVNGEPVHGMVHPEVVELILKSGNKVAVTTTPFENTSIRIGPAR
LNX1_2, Q8TBB1, sequence (Q8TBB1 371-470): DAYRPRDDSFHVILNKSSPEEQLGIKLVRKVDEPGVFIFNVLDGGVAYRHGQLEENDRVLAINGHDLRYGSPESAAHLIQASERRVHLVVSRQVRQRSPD
DLG4_1, P78352, sequence (P78352 62-152): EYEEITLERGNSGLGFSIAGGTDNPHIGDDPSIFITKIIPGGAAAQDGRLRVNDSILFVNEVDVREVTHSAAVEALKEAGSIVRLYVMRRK
SCRIB_2, Q14160, sequence (Q14160 857-960): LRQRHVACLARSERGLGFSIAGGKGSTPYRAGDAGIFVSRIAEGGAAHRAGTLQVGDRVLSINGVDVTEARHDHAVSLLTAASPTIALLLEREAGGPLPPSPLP
TJP1_2, Q07157, sequence (Q07157 181-274): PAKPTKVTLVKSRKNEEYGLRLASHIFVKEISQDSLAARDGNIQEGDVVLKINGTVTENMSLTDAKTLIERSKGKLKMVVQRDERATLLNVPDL

As usually defined, the pKd is −log10 of the Kd, conventionally taken in molar units. As for SAPATLSSRA [PDLIM2, Q96JY6], the pKd entry is “below the threshold” in the experiment with SHANK1, Q9Y566 (setting [1]); “below the threshold” with RAPGEF6, Q8TEU7 (setting [1]); “below the threshold” with CARD11, Q9BXL7 (setting [1]); “below the threshold” with LIMK2, P53671 (setting [1]); “below the threshold” with NHERF3_1, Q5T2W1 (setting [1]); “below the threshold” with LNX1_2, Q8TBB1 (setting [1]). Also, the pKd entry in the experiment with SCRIB_2, Q14160 (setting [1]) is “below the threshold”; in the experiment with DFNB31_2, Q9P202 (setting [1]), “below the threshold”; with DLG3_1, Q92796 (setting [1]), “below the threshold”; with DLG3_3, Q92796 (setting [1]), “below the threshold”; with PDZRN4_1, Q6ZMN7 (setting [1]), “below the threshold”; with SNTA1, Q13424 (setting [1]), “below the threshold”. Further, the pKd entry in the experiment with DLG3_2, Q92796 (setting [1]) was “below the threshold”; in the experiment with DLG4_1, P78352 (setting [1]), “below the threshold”; in the experiment with IL16_1, Q14005 (setting [1]), “below the threshold”; with NHERF3_3, Q5T2W1 (setting [1]) it was “below the threshold”; in the experiment with PARD3_3, Q8TEW0 (setting [1]), “below the threshold”; with MAST1, Q9Y2H9 (setting [1]), “below the threshold”. The pKd result with SIPA1L2, Q9P2F8 (setting [1]) is “below the threshold”; in the experiment with TIAM2, Q8IVF5 (setting [1]), “below the threshold”; in the experiment with GIPC2, Q8TF65 (setting [1]) it was “below the threshold”; with HTRA2, O43464 (setting [1]), “below the threshold”; with TJP1_2, Q07157 (setting [1]), “below the threshold”; in the experiment with SNTB1, Q13884 (setting [1]), “below the threshold”.

With ELKAEDEVQI [DCHS2, Q6V1P9], the negative logarithm of the Kd (pKd) result is listed as “below the threshold” with SHANK1, Q9Y566 (setting [2]); “below the threshold” with RAPGEF6, Q8TEU7 (setting [2]); “below the threshold” with CARD11, Q9BXL7 (setting [2]); “below the threshold” with LIMK2, P53671 (setting [2]); “below the threshold” in the experiment with NHERF3_1, Q5T2W1 (setting [2]); “below the threshold” with LNX1_2, Q8TBB1 (setting [2]). The pKd result with SCRIB_2, Q14160 (setting [2]) was “below the threshold”; in the experiment with DFNB31_2, Q9P202 (setting [2]), “below the threshold”; in the experiment with DLG3_1, Q92796 (setting [2]) it was “below the threshold”; with DLG3_3, Q92796 (setting [2]), “below the threshold”; with PDZRN4_1, Q6ZMN7 (setting [2]), “below the threshold”; in the experiment with SNTA1, Q13424 (setting [2]) it was “below the threshold”. Besides, the pKd with DLG3_2, Q92796 (setting [2]) was 3.59; with DLG4_1, P78352 (setting [2]) it was “below the threshold”; with IL16_1, Q14005 (setting [2]), “below the threshold”; with NHERF3_3, Q5T2W1 (setting [2]) it was “below the threshold”; with PARD3_3, Q8TEW0 (setting [2]) it was 4.74; with MAST1, Q9Y2H9 (setting [2]), “below the threshold”. Besides, the pKd entry with SIPA1L2, Q9P2F8 (setting [2]) is “below the threshold”; in the experiment with TIAM2, Q8IVF5 (setting [2]), 3.52; in the experiment with GIPC2, Q8TF65 (setting [2]) it was “below the threshold”; in the experiment with HTRA2, O43464 (setting [2]) it was “below the threshold”; with TJP1_2, Q07157 (setting [2]) it was 3.87; in the experiment with SNTB1, Q13884 (setting [2]), “below the threshold”.

SGGKRKETLV [NET1, Q7Z628]: the pKd result was “below the threshold” with SHANK1, Q9Y566 (setting [3]); “below the threshold” in the experiment with RAPGEF6, Q8TEU7 (setting [3]); “below the threshold” in the experiment with CARD11, Q9BXL7 (setting [3]); “below the threshold” with LIMK2, P53671 (setting [3]); 4.35 with NHERF3_1, Q5T2W1 (setting [3]); 3.62 in the experiment with LNX1_2, Q8TBB1 (setting [3]). Moreover, the negative logarithm of the Kd (pKd) with SCRIB_2, Q14160 (setting [3]) is 3.54; with DFNB31_2, Q9P202 (setting [3]), “below the threshold”; with DLG3_1, Q92796 (setting [3]), 4.61; in the experiment with DLG3_3, Q92796 (setting [3]) it was 5.05; with PDZRN4_1, Q6ZMN7 (setting [3]), 4.31; with SNTA1, Q13424 (setting [3]), 4.25. The pKd is 5.43 with DLG3_2, Q92796 (setting [3]); 5.21 with DLG4_1, P78352 (setting [3]); “below the threshold” with IL16_1, Q14005 (setting [3]); “below the threshold” with NHERF3_3, Q5T2W1 (setting [3]); “below the threshold” in the experiment with PARD3_3, Q8TEW0 (setting [3]); 4.33 in the experiment with MAST1, Q9Y2H9 (setting [3]). The pKd result is “below the threshold” with SIPA1L2, Q9P2F8 (setting [3]); “below the threshold” with TIAM2, Q8IVF5 (setting [3]); “below the threshold” with GIPC2, Q8TF65 (setting [3]); “below the threshold” with HTRA2, O43464 (setting [3]); “below the threshold” with TJP1_2, Q07157 (setting [3]); 4.56 with SNTB1, Q13884 (setting [3]).

The record behind these values is PMC9482650, “Quantitative fragmentomics allow affinity mapping of interactomes” (Nature Communications, 2022).
